Measured values published in PMC9132103.
pKd: −log10 of the molar value.

Assays:
[1] = target: human IL-10Rβ extracellular domain (residues 20-220), biotinylated, from Hi5 cells (human) (UniProt Q08334)
[2] = target: Clone 5.1 (super-10) in the presence of IL-10Rα ECD (UniProt P22301)
[3] = target: Clone 5.1 (super-10), affinity-matured mono-IL-10 clone (UniProt P22301)

Sequence of human IL-10Rβ extracellular domain (residues 20-220), biotinylated, from Hi5 cells (human) (Q08334 20-220): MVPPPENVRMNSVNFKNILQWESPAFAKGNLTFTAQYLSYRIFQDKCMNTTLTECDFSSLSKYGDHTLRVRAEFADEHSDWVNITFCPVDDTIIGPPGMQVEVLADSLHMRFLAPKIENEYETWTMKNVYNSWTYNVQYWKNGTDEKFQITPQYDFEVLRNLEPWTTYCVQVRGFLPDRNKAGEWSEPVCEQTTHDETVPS
Sequence of human IL-10Rβ extracellular domain (residues 20-220), biotinylated, from Hi5 cells (Q08334 20-220): as above

Substance: IL-10 D25A/E96A (10-DE) (from UniProt P22301 19-178) (ligand)
- phospho-STAT3 by flow cytometry, YT-1 cells, relative to WT IL-10 [1]: 50%

Substance: IL-10 D25K (from UniProt P22301 19-178) (ligand)
- phospho-STAT3 by flow cytometry, YT-1 cells, relative to WT IL-10 [1]: 50%

Substance: human IL-10Rβ extracellular domain (residues 20-220), biotinylated, from Hi5 cells (from UniProt Q08334 20-220) (receptor)
- pKd [2]: 7.52
- pKd [3]: 7.15
